Experimental data published in patent publication US20260265403A1 (TJ BIOPHARMA SHANGHAI, published 2026).
Changes are numbered by the printed parent chain.

T1: human CD24 on cells (human, UniProt P25063 27-59)
T1 chain (looked up): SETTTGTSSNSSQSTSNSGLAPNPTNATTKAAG

T2: CD24-his protein (human, UniProt P25063 27-59, posttranslational modification (purified from mammalian cell))
T2 construct: Purified from mammalian (HEK293) cells; also called soluble recombinant CD24 protein; human HEK293 purified CD24-his protein; not shown: His tag
T2 chain (looked up): T1 chain (looked up)

T3: CD24-his-GST(Ecoli)
T3 construct: also called CD24-GST
T3 chain: T1 chain (looked up)

T4: Human CD24 (human, UniProt P25063 27-59, limits assumed)
T4 chain (looked up): T1 chain (looked up)

B1: 4451HM15-IgG1-3A (antibody, V domains shown)
VH: QVQLVQSGAEVKKPGASVKVSCKASGYDFTGYHMGWVRQAPGQGLEWMGEINPITSDKYFNQKFKSRVTMTRDTSISTAYMELSRLRSDDTAVYYCARRDYGTSLDYWGQGTTVTVSS
VL: DIQLTQSPSFLSASVGDRVTITCRASASISKYLAWYQQKPGKAPKLLIYAGSTLHSGIPSRFRGSGSGTEFTLTISSLQPEDFATYYCQQHNEYPITFGQGTKLEIKR
notes: Produced in a CHO-based system
B2: 4451H-IgG4 (antibody, V domains shown)
VH: B1 VH with G35N, Y59T
VL: DIQLTQSPSFLSASVGDRVTITCRASKSISKYLAWYQQKPGKAPKLLIYAGSTLHSGIPSRFRGSGSGTEFTLTISSLQPEDFATYYCQQHNEYPITFGQGTKLEIK
notes: also called VH1+VL3 fused with human IgG4 Fc

Tests used:
[1] = molecular target: T1, human CD24 on cells; test: cell-based or functional assay
[2] = molecular target: T2, CD24-his protein; test: standard ELISA on CD24-his
From the text: (§1) Since human CD24 contains only 33 core amino acids, and is heavily glycosylated, two different proteins were used to perform protein binding assay. CD24-his protein was purified from mammalian cell and as modified by posttranslational modification. While CD24-GST was purified from E. coli with no PTM.

[3] = molecular target: T1, human CD24 on cells; test: flow cytometry (GMFI), A549 cells
Procedure: (§2) Antibodies were 4-fold serially diluted from 40 μg/mL and incubated with MCF7 cells (panel A), OVCAR3 cells (panel B), A549 cells (panel C), and NALM6 cells (panel D) cells for 30 minutes at 4° C. in FACS buffer. Then, PE conjugated-anti-human IgG (H+L) antibody was added and incubated for another 30 minutes. After washing, geometric mean fluorescence intensity (GMFI) of PE was evaluated by FACS.
(§3) Here we used four CD24 highly expressed tumor cell lines MCF7 (breast cancer), OVCAR3 (ovarian cancer), A549 (lung cancer), and NALM6 ([…]).

[4] = molecular target: T1, human CD24 on cells; test: flow cytometry (GMFI), MCF-7 cells
Procedure: as §2, §3

[5] = molecular target: T1, human CD24 on cells; test: flow cytometry (GMFI), NALM6 cells
Procedure: as §2, §3

[6] = molecular target: T1, human CD24 on cells; test: flow cytometry (GMFI), OVCAR3 cells
Procedure: as §2, §3

[7] = molecular target: T1, human CD24 on cells; test: flow cytometry on MCF7, OVCAR3, A549 and NALM6 cells
Procedure: as §2, §3

[8] = molecular target: T2, CD24-his protein; test: ELISA, CD24-his (HEK 293), unit taken from the concentration axis
From the text: as §1

[9] = molecular target: T1, human CD24 on cells; test: flow cytometry (GMFI), MCF-7 cells
[10] = molecular target: T1, human CD24 on cells; test: flow cytometry (GMFI), NALM6 cells
[11] = molecular target: T2, CD24-his protein; test: ELISA, CD24-his(HEK 293) [Cont'd) B]
[12] = molecular target: T3, CD24-his-GST(Ecoli); test: ELISA, CD24-his-GST(Ecoli) [Cont'd) B]
[13] = molecular target: T1, human CD24 on cells; test: flow cytometry (GMFI), MCF-7 cells [Cont'd) C]
[14] = molecular target: T1, human CD24 on cells; test: flow cytometry (GMFI), MC38-hCD24 cells [Cont'd) C]
[15] = molecular target: T4, Human CD24; test: Biacore (SPR); antibody as ligand, human CD24 as analyte
[16] = molecular target: T1, human CD24 on cells; test: Siglec10-PE competition assay (GMFI); competitor Siglec-10; CD24 source not named on the sheet [Cont'd) D]

Binder | EC50 of macrophage mediated phagocytosis against multiple tumor cells [1] [nM] | EC50 [2] [µg/mL] | EC50 (read off the curve) [3] [µg/mL] | EC50 (read off the curve) [4] [µg/mL] | EC50 (read off the curve) [5] [µg/mL] | EC50 (read off the curve) [6] [µg/mL] | EC50 [7] [nM] | EC50 [8] [µg/mL] | EC50 (read off the curve) [9] [µg/mL] | EC50 (read off the curve) [10] [µg/mL] | EC50 (read off the curve) [11] [µg/mL] | EC50 (read off the curve) [12] [µg/mL] | EC50 (read off the curve) [13] [µg/mL] | EC50 (read off the curve) [14] [µg/mL] | Kd [15] [nM] | koff [15] [s⁻¹] | kon [15] [M⁻¹ s⁻¹] | IC50 (read off the curve) [16] [µg/mL]
B1 | 1.97 to 2.45 | 10.1 | ~0.2 | ~0.2 | ~0.3 | ~0.3 | 1.2 to 2.11 | 0.0101 | – | – | – | – | – | – | – | – | – | –
B2 | – | – | – | – | – | – | – | – | ~0.2 | ~0.3 | ~0.02 | ~0.06 | ~0.2 | ~0.2 | 15.5 | 0.0175 | 1.13e+06 | ~1
